US20220073631A1 (QYUNS THERAPEUTICS, published 2022)

Tests used:
[1] = biological target: T1, hIL-4Rα-Mu240 (human, UniProt P24394 26-232); test: SPR, Biacore T200, by the methods of Example 2
T1 construct: Printed positions fit the mature protein; also called D66A/D67A/V68R; not shown: C-terminal his-tag
T1 chain: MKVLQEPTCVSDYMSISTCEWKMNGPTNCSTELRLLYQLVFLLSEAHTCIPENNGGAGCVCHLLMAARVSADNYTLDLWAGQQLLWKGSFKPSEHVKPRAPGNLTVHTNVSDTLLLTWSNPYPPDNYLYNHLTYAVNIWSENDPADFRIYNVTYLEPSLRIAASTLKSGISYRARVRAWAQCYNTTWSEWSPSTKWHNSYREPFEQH
Description: (§1) The protein A was chemically coupled to a CM5 chip, and an appropriate amount of the antibody was immobilized by a capture method such that the Rmax was less than 50 RU and the flow rate for the capture was 10 μl/min. The antigen was subject to gradient dilution, and the flow rate in the instrument was switched to 30 μl/min. The antigen was flowed through the reference channel and the channel with the immobilized antibody sequentially in an ascending order of concentration, and the running buffer was flowed through as a negative control. After each binding and dissociation was complete, the chip was regenerated with glycine, pH 1.5. Fitting was performed with the build-in software in the instrument according to a 1:1 binding model. The binding rate constant kₐ, the dissociation rate constant kd, and the equilibrium dissociation constant KD values of the antibody were calculated. Dupilumab was obtained by purchasing a commercially available medicine.
(§2) To further narrow down the key amino acids that PD2-31 binds to, multiple mutants of hIL-4Rα were designed in Loop 2 (V40FLLSEA46) and Loop 3 (M65[…]73) (Table 2). The wild-type hIL-4Rα (hIL-4Rα-ECD) and hIL-4Rα mutants were prepared using standard techniques. Briefly, the expression plasmids containing the extracellular domain of wild-type hIL-4Rα and different mutated hIL-4Rα were constructed and transfected into HEK 293F cells. After expression, the extracellular domain of wild-type hIL-4Rα and hIL-4Rα mutants with C-terminus his-tag were purified by Nickel chromatography. Purified proteins of wild-type hIL-4Rα and hIL-4Rα mutants were analyzed for interaction with PD2-31 and Dupilumab. The interaction was studied by Biacore T200, according to the methods in Example 2.

[2] = biological target: T2, hIL-4Rα-Mu245 (human, UniProt P24394 26-232); test: SPR, Biacore T200, by the methods of Example 2
T2 construct: Printed positions fit the mature protein; also called A71L/D72R/N73A; not shown: C-terminal his-tag
T2 chain: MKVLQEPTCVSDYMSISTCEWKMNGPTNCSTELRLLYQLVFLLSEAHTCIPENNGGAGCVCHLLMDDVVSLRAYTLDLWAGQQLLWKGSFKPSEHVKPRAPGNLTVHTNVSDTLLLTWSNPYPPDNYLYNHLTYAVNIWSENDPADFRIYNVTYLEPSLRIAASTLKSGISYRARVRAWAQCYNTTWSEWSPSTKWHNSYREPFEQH
Description: as §1, §2

[3] = biological target: T3, hIL-4Rα-Mu239 (human, UniProt P24394 26-232); test: SPR, Biacore T200, by the methods of Example 2
T3 construct: Printed positions fit the mature protein; also called M65I/D66A/D67A; not shown: C-terminal his-tag
T3 chain: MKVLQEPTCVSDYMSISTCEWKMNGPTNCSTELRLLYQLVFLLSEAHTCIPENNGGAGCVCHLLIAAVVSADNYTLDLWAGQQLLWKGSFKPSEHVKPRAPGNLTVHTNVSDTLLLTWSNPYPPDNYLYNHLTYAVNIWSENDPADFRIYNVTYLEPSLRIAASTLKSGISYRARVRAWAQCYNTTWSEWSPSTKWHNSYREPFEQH
Description: as §1, §2

[4] = biological target: T4, hIL-4Rα-Mu453 (human, UniProt P24394 26-232); test: SPR, Biacore T200, by the methods of Example 2
T4 construct: Printed positions fit the mature protein; also called D66A/D67A; not shown: C-terminal his-tag
Description: as §1, §2

[5] = biological target: T5, hIL-4Rα-Mu242 (human, UniProt P24394 26-232); test: SPR, Biacore T200, by the methods of Example 2
T5 construct: Printed positions fit the mature protein; also called V68R/V69F/S70Q; not shown: C-terminal his-tag
T5 chain: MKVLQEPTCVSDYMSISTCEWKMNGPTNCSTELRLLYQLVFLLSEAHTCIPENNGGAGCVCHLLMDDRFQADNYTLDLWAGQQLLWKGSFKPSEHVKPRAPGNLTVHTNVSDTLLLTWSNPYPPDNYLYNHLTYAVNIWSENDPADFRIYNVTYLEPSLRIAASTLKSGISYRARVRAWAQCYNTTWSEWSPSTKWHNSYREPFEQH
Description: as §1, §2

[6] = biological target: T6, hIL-4Rα-Mu244 (human, UniProt P24394 26-232); test: SPR, Biacore T200, by the methods of Example 2
T6 construct: Printed positions fit the mature protein; also called S70Q/A71L/D72R; not shown: C-terminal his-tag
T6 chain: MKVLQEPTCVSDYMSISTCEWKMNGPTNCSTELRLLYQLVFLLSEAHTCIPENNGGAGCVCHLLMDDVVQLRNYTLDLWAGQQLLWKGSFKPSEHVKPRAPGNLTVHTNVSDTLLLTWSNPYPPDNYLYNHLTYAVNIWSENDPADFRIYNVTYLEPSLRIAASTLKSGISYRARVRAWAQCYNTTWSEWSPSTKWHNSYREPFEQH
Description: as §1, §2

[7] = biological target: T7, human IL-4Rα (Shanghai Novoprotein Technology Co., Ltd) (human, UniProt P24394 26-232); test: SPR, Biacore T200, antibody captured on protein A, antigen as analyte, 25 C, 1:1 model
T7 construct: Bought protein; also called hIL-4Rα; human interleukin-4 receptor alpha
Description: as §1

[8] = biological target: T8, hIL-4Rα-ECD (wild-type hIL-4Rα extracellular domain with C-terminus his-tag) (human, UniProt P24394 26-232); test: SPR, Biacore T200, by the methods of Example 2; mean of three experiments
T8 construct: Made in HEK 293F cells and purified on nickel; not shown: C-terminal his-tag
Description: as §1, §2

Kd [1]: 0.75 nM
koff [1]: 5.23e-05 s⁻¹
kon [1]: 69800 M⁻¹ s⁻¹
Kd [2]: 1.45 nM
koff [2]: 0.00029 s⁻¹
kon [2]: 201000 M⁻¹ s⁻¹
Kd [3]: 0.163 nM
koff [3]: 2.71e-05 s⁻¹
kon [3]: 166000 M⁻¹ s⁻¹
Kd [4]: 0.663 nM
koff [4]: 0.000118 s⁻¹
kon [4]: 178000 M⁻¹ s⁻¹
Kd [5]: 0.979 nM
koff [5]: 0.000138 s⁻¹
kon [5]: 141000 M⁻¹ s⁻¹
Kd [6]: 1.1 nM
koff [6]: 0.000104 s⁻¹
kon [6]: 94500 M⁻¹ s⁻¹
Kd [7]: 0.378 nM
koff [7]: 0.000236 s⁻¹
kon [7]: 612000 M⁻¹ s⁻¹
Kd [8]: 0.169 nM
koff [8]: 0.000134 s⁻¹
kon [8]: 779000 M⁻¹ s⁻¹
B1: QX005N (PD2-31) (antibody, V domains shown)
VH: EVQLVESGGGLVQPGGSLRLSCAASGIDLRTNSMSWVRQAPGKGLEWVGIIGSSGYMDYASWAKGRFTISRDNSKNTLYLQMNSLRAEDTAVYYCARHGDSSSFALWGQGTLVTVSS
VL: DIQMTQSPSSLSASVGDRVTITCRASESVYKNNRLSWYQQKPGKAPKLLIYEASKVASGVPSRFSGSGSGTDFTLTISSLQPEDFATYYCAGAYRGNIYPFGQGTKVEIK
notes: Humanized from rabbit clone #2, expressed as a full antibody in ExpiCHO-S cells (heavy chain 48.5 kDa, light chain 23.7 kDa)
